Source: paper PMC9554411

Biological target: MERS-CoV spike glycoprotein ectodomain (EMC strain, spike residues 1-1290), trimer (MERS-CoV (EMC strain)) (UniProt K0BRG7)
Experiment: cryo-EM structure

MERS-CoV spike glycoprotein ectodomain (EMC strain, spike residues 1-1290), trimer (from UniProt K0BRG7 18-1290) (domain or fragment)
stoichiometry N: 3
